Measured values reported in patent US20230340098A1 (SHANGHAI HENLIUS BIOTECH, published 2023).
Where two headings read alike, the source gives them in different places.

T1: human GARP protein not in any GARP/TGFβ1 complex (protein used in ELISA and Octet) (human, UniProt Q14392 20-627, limits assumed)
T1 construct: Coated on plates at 2 µg/ml in the ELISA; also called hGARP; human GARP alone
T1 sequence (looked up): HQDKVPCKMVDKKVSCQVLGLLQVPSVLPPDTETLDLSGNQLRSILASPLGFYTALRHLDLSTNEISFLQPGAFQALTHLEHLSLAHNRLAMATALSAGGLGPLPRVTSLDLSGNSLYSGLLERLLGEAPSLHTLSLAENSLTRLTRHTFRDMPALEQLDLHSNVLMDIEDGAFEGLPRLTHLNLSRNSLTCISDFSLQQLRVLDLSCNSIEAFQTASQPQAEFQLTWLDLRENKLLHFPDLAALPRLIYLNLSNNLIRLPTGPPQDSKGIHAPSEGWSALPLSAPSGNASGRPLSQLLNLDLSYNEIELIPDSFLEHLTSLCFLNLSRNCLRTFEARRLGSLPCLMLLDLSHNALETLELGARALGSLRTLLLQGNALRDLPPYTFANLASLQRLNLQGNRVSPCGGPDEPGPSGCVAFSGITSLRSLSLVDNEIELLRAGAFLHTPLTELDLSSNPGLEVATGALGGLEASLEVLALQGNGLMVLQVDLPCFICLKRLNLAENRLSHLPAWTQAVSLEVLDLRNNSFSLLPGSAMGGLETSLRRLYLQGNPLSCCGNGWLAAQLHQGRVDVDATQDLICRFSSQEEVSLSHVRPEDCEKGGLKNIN


Tests used:
[1] = target: T2, human GARP/latent TGFβ1 complex on cells (human, UniProt Q14392 20-662; P01137 30-390); test: flow cytometry on human GARP/latent TGFβ1 transfected CHO-S cells, goat anti-human IgG(H+L) FITC
T2 construct: whole, on cells; also called human GARP/TGFβ1 complex; human GARP/TGFβ complex

[2] = target: T2, human GARP/latent TGFβ1 complex on cells; test: as above; remark: listed apart in the source
[3] = target: T3, mouse GARP/latent TGFβ1 complex on transfected CHO-S cells (mouse); test: flow cytometry on mouse GARP/latent TGFβ1 transfected CHO-S cells, goat anti-human IgG(H+L) FITC
T3 construct: also called mouse GARP/TGFβ1 complex; mouse GARP/TGFβ complex

[4] = target: T4, human GARP/TGFβ1 complex (protein used in ELISA and Octet) (human, UniProt Q14392 20-627; P01137 30-390, limits assumed); test: Octet
T4 construct: Coated on plates at 4 µg/ml in the ELISA; also called hGARP/TGFβ1; human GARP/latent TGFβ1 complex

[5] = target: T1, human GARP protein not in any …; test: Octet

Row | EC50 (read off the curve) [1] [µg/mL] | EC50 (read off the curve) [2] [µg/mL] | EC50 (read off the curve) [3] [µg/mL] | Kd [4] [nM] | Kd [5] [nM] | Binder
1 | ~1 |  |  | 0.281 |  | Clone GA1#8 (antibody, V domains shown) VH: QVQLVQSGGGVVQPGRSLRLSCAASGFTFSSYAMHQVRQAPGKGLEWVASISYDGSNKYYADSVKGRFTISRDNSKNTLYLQMNSLRAEDTAVYYCARDALRTYYYQGMDVWGQGTTVTVSS VL: SYELTQPPSVSVSPGQTARITCSGDALPDRYTYWYQQKPGQAPVLVIYSDNERPRGIPERFSGSSSGTTATLTINGVQAEDEADYYCQSADYTYTFGGGTKLTVL
2 |  |  |  | 0.696 | 0.429 | Clone hGA17 (antibody, human IgG1, kappa, V domains shown, Humanized form of mouse clone GA17; kappa light chain) VH: QVQLVQSGAEVKKPGASVKVSCKASGFNIKDTYFHWVRQAPGQGLEWMGRIDPTNGNGRYAQKFQGRVTMTRDTSTSTVYMELSSLRSEDTAVYYCATSTGTGYFALVYWGQGTTVTVSS VL: DIQLTQSPSFLSASVGDRVTITCKASQNVGSAVAWYQQKPGKAPKLLIYWSSTRHTGVPSRFSGSGSGTEFTLTISSLQPEDFATYYCQQYSNYPLTFGGGTKLEIKR

More lines, now with the values behind:

Row | Binder | EC50 (read off the curve) [1] [µg/mL] | EC50 (read off the curve) [2] [µg/mL] | EC50 (read off the curve) [3] [µg/mL] | Kd [4] [nM] | Kd [5] [nM]
3 | Clone GA1#7 (antibody, V domains shown) VH: QVQLVQSGGGVVQPGRSLRLSCAASGFTFSSYAMHQVRQAPGKGLEWVAVISYDGSQKYYADSVKGRFTISRDNSKNTLYLQMNSLRAEDTAVYYCARDALRTYYYYGMDVWGQGTTVTVSS VL: SYELTQPPSVSVSPGQTARITCSGDALPDRYTYWYQQKPGQAPVLVIYSDNERPSGIPERFSGSSSGTTATLTINGVQAEDEADYYCQSSDDTYTFGGGTKLTVL | ~1 |  |  |  | 
4 | Clone GA1 (antibody, V domains shown) VH: QVQLVQSGGGVVQPGRSLRLSCAASGFTFSSYAMHQVRQAPGKGLEWVAVISYDGSNKYYADSVKGRFTISRDNSKNTLYLQMNSLRAEDTAVYYCARDVLRTYYYYGMDVWGQGTTVTVSS VL: SYELTQPPSVSVFPGQTARITCSGDALPDRYTYWYQQKPGQAPVLVIYSDNERPSGIPERFSGSSSGTIATLTINGVQAEDEADYYCQSADDTYTFGGGTKLTVL | ~1 | ~0.6 | ~0.2 |  | 
